# In patent US8969026B2, “Polymeric reverse micelles as selective extraction agents and related methods of MALDI-MS analysis” (University of Massachusetts, priority 2007, dated 2015):
# What was measured:
# [1] = Inverse micelle (polymer 1) extraction of a myoglobin tryptic digest at pH 7.1, MALDI-MS; format: physicochemical; conditions: myoglobin tryptic digest 1 μM, polymer 1 in toluene, K = Iorg/Iaq, [M+H]+, 3 replicates
# Source text: All of the peptides with pI values above 7.1 are extracted effectively, and with only one exception, peptides with pI values below 7.1 are not extracted effectively. Among the peptide fragments tested, the only exception is the peptide N140-G153 (m/z 1553), a peptide fragment that has a pI below 7.1 and still has K>1. […] One of two reasons could explain the observed results: First, because the pH of the solution is so close to the pI of this peptide, a significant fraction of the peptide is positively-charged at pH 7.1 and therefore extracted. Alternatively, the theoretically calculated pI value may be low.
# (§1) A typical biphasic extraction procedure involves mixing 200 μL of a toluene solution of homopolymer 1 or 2 (1×10^−4 M) with 1 mL of an aqueous solution of peptide(s) that was buffered to pH ˜7.0 with 50 mM Tris/TrisHCl. The mixture is vortexed for 10 to 120 minutes and centrifuged at 12000 rpm for 30-40 minutes to break the resulting emulsion and separate the organic and aqueous layers. The top (organic) layer is then recovered and dried to obtain a solid residue. The residue is redissolved into 10 μL of THF and sonicated for 10 seconds to promote solubilization. Finally, 20 μL of an α-CHCA matrix solution (0.16 Min 60:40:0.3% THF:H2O:TFA) are added to the sample for a final volume of 30 μL. For MALDI-MS analysis the samples are applied to the target using the dried-droplet method, where 1 μL of the sample/matrix mixture is spotted on a stainless-steel target, and the solvent is evaporated at room temperature. The residual aqueous phase (˜1 mL) after extraction is also examined by MALDI-MS. Equal amounts (5 μL) of the aqueous phase and the matrix solution (0.16 M α-CHCA in 60:40:0.3% THF:H2O:TFA) are mixed, and 1 μL of the resulting solution is spotted, using the dried droplet method, on a stainless-steel target for MALDI-MS analysis.
# Extraction of the myoglobin digest was done in a manner similar to described above. 1 mL aliquots of a 1×10^−6 M protein digest were buffered at pH 7.1 with 50 mM TRIS, mixed with 200 μL of a toluene solution of homopolymer 1 (1×10^−4 M), extracted, and analyzed by MALDI-MS as detailed above.
# Proteolytic digestion. For the myoglobin tryptic digests, 110 μl of protein solution (˜3×10^−4 M in 50 mM TRIS buffer) were mixed with 40 μL of MeOH. The mixture was heated at 60° C. for 10 minutes to denature the protein. 150 μL of a trypsin solution, which contained 2 μg/450 μL of protein, 50 mM TRIS buffer, and 1 mM CaCl2, was added to the denatured protein sample, and the mixture was left to digest at 37° C. for 24 hours. The digestion was stopped by filtering the solution through a 10K MWCO Centricon filter. The filtrates were diluted to the desired concentration and used for extraction and analysis.
# [2] = fluorescent pI markers, cited from earlier work; for Pka: second pKa column
# [3] = pH-dependent biphasic extraction of a peptide mixture with inverse micelles of polymer 1 in toluene, MALDI-MS ion abundance ratio; format: physicochemical; conditions: polymer 1 inverse micelles in toluene, K = Iorg/Iaq, [M+H]+ signal, [M+K]+ for spinorphin and β-amyloid, at least 4 replicates; for Ion abundance ratio (K ± sM) pH 4.0: aqueous pH 4.0; for Ion abundance ratio (K ± sM) pH 7.1: aqueous pH 7.1; for Ion abundance ratio (K ± sM) pH 9.0: aqueous pH 9.0
# Source text: The net charge within the inverse micelle of 1 is negative, affording a selective extraction of positively-charged peptides. In a typical experiment, a toluene solution containing 1 was mixed with an aqueous solution containing a mixture of peptides. After vortexing this mixture, the organic layer was separated and analyzed using MALDI-MS. […] Because the aqueous solution was buffered at a pH of 7.1, peptides with pI values above 7.1 were expected to be sequestered into the interior of the inverse micelles, while peptides with pI values below 7.1 would be mostly excluded based on Coulombic repulsion.
# The ion abundance ratio is related to the extraction capacity of the polymer, and can be defined as the ratio of the MALDI ion abundance of the peptide in the organic phase that contains the inverse micelles (Iorg) to the ion abundance of the peptide remaining in the aqueous phase (Iaq) (K=Iorg/Iaq). These experiments were performed with the hypothesis that the extraction would be based on electrostatic interaction between the polymer and the peptide. To test this premise further, two control experiments were carried out. […] Therefore, a two-phase extraction experiment was done in the absence of homopolymer 1, and no peptide extraction into the organic phase was observed. Second, peptide extractions using a polymer without the negatively-charged functionality were performed. Polymer 2 contains charge-neutral pentaethyleneglycol functionalities instead of the carboxylic acid moieties. […] These two results are consistent with the hypothesis that the extraction is based on electrostatics.
# Without limitation to any one theory or mode of operation, the pH of the overall aqueous solution is also likely to dictate the pH of the hydrated interiors of the inverse micelle where the binding takes place. Accordingly, extractions at three different pHs: 4.0, 7.1, and 9.0 were carried out; the results of these experiments are listed in Table 1. […] The results from experiments at pH 7.1 and 9.0 further support this idea. It should be noted that when the experiment is carried out at pH 9.0, the peptide with a pI of 7.7 is extracted to some extent. Such a result could be attributed to errors associated with aqueous solution pH measuring or to errors in the peptide pI calculation. Nonetheless, the tunability is still significant and therefore is a very useful result.
# A Bruker Reflex III time-of-flight mass spectrometer was used to perform MALDI-MS analysis. The mass spectrometer is equipped with a 337-nm nitrogen laser, a 1.0 m flight tube, and a stainless steel sample target. All mass spectra were acquired in reflectron mode using a voltage of 16 kV. All reported spectra represent an average of 70 shots acquired at 30% laser power. The accelerating voltage was set to 20 kV.
# as §1, with “Equal amounts (5 μL) of the aqueous phase and the matrix solution (0.16 M α-CHCA in 60:40:0.3% THF:H2O:TFA) are mixed, and 1 μL of the resulting solution is spotted, using the dried droplet method, on a stainless-steel target for MALDI-MS analysis.” left out
molecule,measurement,setting,value
GLSDGEWQQVLNVWGK (listed as Equus caballus) [tryptic fragment of equine myoglobin],Ion abundance ratio (K ± sM),[1],0.3 ± 0.1
KKGHHEAELKPLAQSHATK (listed as Equus caballus) [tryptic fragment of equine myoglobin],Ion abundance ratio (K ± sM),[1],140 ± 12
O=C(NCCN1CCOCC1)c1cc2ccccc2cc1O [pI marker 6],Pka1,[2],6.20
same,pI,[2],7.2
same,Pka,[2],8.10
S YSMEHFRWGKPV [ACTH Human],Ion abundance ratio (K ± sM) pH 4.0,[3],221 ± 37
same,Ion abundance ratio (K ± sM) pH 7.1,[3],422 ± 87
same,Ion abundance ratio (K ± sM) pH 9.0,[3],128 ± 41
NCCCN1CCN(CCCNC(=O)c2cc3ccccc3cc2O)CC1 [pI marker 8],Pka1,[2],8.05
same,pI,[2],9.0
same,Pka,[2],9.85
KGHHEAELKPLAQSHATK (listed as Equus caballus) [tryptic fragment of equine myoglobin],Ion abundance ratio (K ± sM),[1],310 ± 0.2
Nc1ccccc1C(=O)NCCCCCC(=O)O [pI marker 3],pI,[2],4.0
ALELFRNDIAAK [tryptic fragment of equine myoglobin],Ion abundance ratio (K ± sM),[1],0.7 ± 0.1
LFTGHPETLEKFDKFK (listed as Equus caballus) [tryptic fragment of equine myoglobin],Ion abundance ratio (K ± sM),[1],41 ± 6
HPGDFGADAQGAMTK (listed as Equus caballus) [tryptic fragment of equine myoglobin],Ion abundance ratio (K ± sM),[1],0.05 ± 0.004
YLEFISDAIIHVLHSK (listed as Equus caballus) [tryptic fragment of equine myoglobin],Ion abundance ratio (K ± sM),[1],0.0
HGTVVLTALGGILK (listed as Equus caballus) [tryptic fragment of equine myoglobin],Ion abundance ratio (K ± sM),[1],32 ± 5
"IARRHPYFL (listed as Homo sapiens) [Kinetensin, human peptide purchased from American Peptide Company]",Ion abundance ratio (K ± sM) pH 4.0,[3],337 ± 79
same,Ion abundance ratio (K ± sM) pH 7.1,[3],882 ± 212
same,Ion abundance ratio (K ± sM) pH 9.0,[3],616 ± 198
YKELGFQG (listed as Equus caballus) [tryptic fragment of equine myoglobin],Ion abundance ratio (K ± sM),[1],0.01 ± 0.001
LFTGHPETLEK (listed as Equus caballus) [tryptic fragment of equine myoglobin],Ion abundance ratio (K ± sM),[1],0.02 ± 0.02
O=C(NCCN1CCOCC1)c1cc2ccccc2c(Br)c1O [pI marker 5],Pka1,[2],5.35
same,pI,[2],6.2
same,Pka,[2],6.95
ASEDLKKHGTVVLTALGGILK (listed as Equus caballus) [tryptic fragment of equine myoglobin],Ion abundance ratio (K ± sM),[1],36 ± 4
KHGTVVLTALGGILK (listed as Equus caballus) [tryptic fragment of equine myoglobin],Ion abundance ratio (K ± sM),[1],51 ± 10
VEADIAGHGQEVLIR (listed as Equus caballus) [tryptic fragment of equine myoglobin],Ion abundance ratio (K ± sM),[1],0.3 ± 0.04
NDIAAKYKELGFQG (NDLAAKYKELGFQG; listed as Equus caballus) [tryptic fragment of equine myoglobin],Ion abundance ratio (K ± sM),[1],1.4 ± 0.4
same,Ion abundance ratio (K ± sM),[1]; listed as N140-G153,1.4
GHHEAELKPLAQSHATK (listed as Equus caballus) [tryptic fragment of equine myoglobin],Ion abundance ratio (K ± sM),[1],425 ± 61
HGTVVLTALGGILKK (listed as Equus caballus) [tryptic fragment of equine myoglobin],Ion abundance ratio (K ± sM),[1],51 ± 10
NCCCCCCNCCCCCCNC(=O)c1cc2ccccc2cc1O [pI marker 9],Pka1,[2],9.95
same,pI,[2],10.3
same,Pka,[2],10.65
